Structures can show the parent of a compound that is named as a salt.
What was measured:
[1] = Phase 1 study of OMP-21M18: blood pressure readings and anti-hypertensive treatment of individual subjects
Description: For study days in which an infusion of OMP-21M18 was administered, blood pressure readings include a reading pre-infusion, 15 minutes after the start of infusion, at the end of infusion, and 15 minutes post-infusion.
OMP-21M18 was administered at dosages of 0.5 mg/kg weekly to three subjects, 1.0 mg/kg weekly to three subjects, 2.5 mg/kg every two weeks to six subjects, 2.5 mg/kg weekly to six subjects, 5.0 mg/kg every two weeks to six subjects, 5.0 mg/kg weekly to three subjects, and 10.0 mg/kg every two weeks to six subjects. According to the study protocol, the administration period was nine weeks, unless a subject was removed from the study due to a dose limiting toxicity. Baseline blood pressure readings were taken just prior to administration of the first dosage. Toxicities were assessed using the National Institute of Health's Common Toxicity Criteria for Adverse Events (CTCAE) version 3.0. During the study, subjects were assessed for dose limiting toxicities from the time of the first dose through 7 days after administration of the fourth dose (Days 0-28).

[2] = Phase 1 dose escalation study of OMP-21M18 in subjects with solid tumors: incidence of hypertension (CTCAE v3.0); format: in vivo; details: for Grade 3 Hypertension / Grade 4 Hypertension: number of patients
Description: Thirty-three subjects with advanced solid tumors initiated treatment with OMP-21M18 in a Phase I clinical trial. The trial was designed to determine the maximum tolerated dose (MTD), safety, pharmacokinetics, immunogenicity, and preliminary efficacy of OMP-21M18 in subjects with advanced solid tumors. All subjects had histologically confirmed malignancies that were metastatic or unresectable and had received extensive treatment for their cancer.
OMP-21M18 was prepared for use at a concentration of 10 mg/mL in a solution of 50 mM histidine, 100 mM sodium chloride, 45 mM sucrose, and 0.01% (w/v) Polysorbate 20, with the pH adjusted to 6.0. Once prepared, OMP-21M18 was stored as 20 mL aliquots in 25-cc vials.

[3] = Subject 2 on OMP-21M18 1 mg/kg, labetalol 400 bid, lasix 20 mg qd, Norvasc 10 mg qd, Prinzide 20/25 mg together, 7 additional OMP-21M18 doses without hypertension
[4] = Subject 1 on OMP-21M18 0.5 mg/kg weekly, Lotensin, Norvasc and hydrochlorothiazide together
[5] = 2.5 mg/kg every 2 weeks, 6 patients
[6] = 5.0 mg/kg every 2 weeks, 6 patients
[7] = 10.0 mg/kg every 2 weeks, 6 patients, one patient had both Grade 3 and Grade 4

NS(=O)(=O)c1cc(C(=O)O)c(NCc2ccco2)cc1Cl [lasix, reference compound]
blood pressure control by anti-hypertensive regimen [1, 3]: controlled their blood pressure

CCOC(=O)C1=C(COCCN)NC(C)=C(C(=O)OC)C1c1ccccc1Cl (centres unmarked) [Norvasc®, amlodipine besylate, reference compound]
blood pressure control by anti-hypertensive regimen [1, 4]: adequate blood pressure control | blood pressure control by anti-hypertensive regimen [1, 3]: controlled their blood pressure | adverse event leading to discontinuation of anti-hypertensive ([1]; Subject 3 on OMP-21M18 2.5 mg/kg, Norvasc 5 mg qd, discontinued Day 141): ankle edema

CCOC(=O)[C@H](CCc1ccccc1)N[C@H]1CCc2ccccc2N(CC(=O)O)C1=O [Lotensin®, benazepril hydrochloride, reference compound]
blood pressure control by anti-hypertensive regimen [1, 4]: adequate blood pressure control

NS(=O)(=O)c1cc2c(cc1Cl)NCNS2(=O)=O [hydrochlorothiazide, reference compound]
blood pressure control by anti-hypertensive regimen [1, 4]: adequate blood pressure control

CC(CCc1ccccc1)NCC(O)c1ccc(O)c(C(N)=O)c1 (centres unmarked) [labetalol, reference compound]
blood pressure control by anti-hypertensive regimen [1, 3]: controlled their blood pressure

B1: OMP-21M18: humanized anti-DLL4 antibody encoded by the plasmid with ATCC deposit number PTA-8425 (antibody, V domains shown)
VH: QVQLVQSGAEVKKPGASVKISCKASGYSFTAYYIHWVKQAPGQGLEWIGYISSYNGATNYNQKFKGRVTFTTDTSTSTAYMELRSLRSDDTAVYYCARDYDYDVGMDYWGQGTLVTVSS
VL: DIVMTQSPDSLAVSLGERATISCRASESVDNYGISFMKWFQQKPGQPPKLLIYAASNQGSGVPDRFSGSGSGTDFTLTISSLQAEDVAVYYCQQSKEVPWTFGGGTKVEIK
modifications: Heavy chain variable region, H7; Light chain variable region
blood pressure, highest reported ([1]; Subject 1, 0.5 mg/kg weekly, Day 21, 15 minutes post infusion, baseline 135/73, on Lotensin 30 mg qd): 199/92 | blood pressure ([1]; Subject 1, 0.5 mg/kg weekly, Day 24, baseline 135/73, on Lotensin 30 mg qd): 183/89 | blood pressure ([1]; Subject 1, 0.5 mg/kg weekly, Day 32, on Lotensin 40 mg qd and Norvasc 5 mg qd): 177/88 | blood pressure ([1]; Subject 1, 0.5 mg/kg weekly, Day 41, on Lotensin 40 mg qd and Norvasc 10 mg qd): 160/85 | blood pressure ([1]; Subject 2, 1 mg/kg weekly, Day 7 (high), baseline 141/85, on lisinopril 10 mg qd): 177/93 | blood pressure ([1]; Subject 2, 1 mg/kg weekly, Day 14, on lisinopril plus irbesartan/hydrochlorothiazide, study drug dose not administered): 173/110 | blood pressure ([1]; Subject 2, 1 mg/kg weekly, Day 21, on labetalol 100 mg bid and Prinzide 10/12.5 qd): 164/112 | blood pressure ([1]; Subject 2, 1 mg/kg weekly, Day 55, on labetalol 400 mg bid and Prinzide 10/12.5 qd): 163/91 | blood pressure ([1]; Subject 2, 1 mg/kg, Day 84, on labetalol 400 mg bid and Prinzide 20/25 qd, OMP-21M18 dose not administered): 167/102 | blood pressure ([1]; Subject 3, 2.5 mg/kg weekly, Day 21, baseline 96/54, no prior history of hypertension): 159/90 | blood pressure ([1]; Subject 3, 2.5 mg/kg, Day 112, on Dyazide 1 po qd): 152/77 | blood pressure ([1]; Subject 3, 2.5 mg/kg, Day 146, on lisinopril 20 mg bid): 143/85 | blood pressure ([1]; Subject 4, 2.5 mg/kg cohort, Day 14, baseline 118/73, on dyazide and lisinopril, increase not related to study drug according to the Investigator): 153/79 | blood pressure ([1]; Subject 5, 10 mg/kg once every other week, Day 9, baseline 130/90): 160/90 | blood pressure ([1]; Subject 5, 10 mg/kg once every other week, Day 26, at home, on lisinopril 5 mg qd): 170/90 | blood pressure ([1]; Subject 5, 10 mg/kg once every other week, Day 62, on lisinopril 10 mg bid): 190/120 | blood pressure ([1]; Subject 5, 10 mg/kg once every other week, Day 65, on lozartan 25 mg, bisoprolol 2.5 mg, amlodipine 5 mg qd): 170/106 | blood pressure ([1]; Subject 6, 10 mg/kg cohort, Day 28, single reading, on enalapril): 150/90 | blood pressure ([1]; Subject 6, 10 mg/kg cohort, subsequent reading after Day 28, on enalapril): 150/90 | blood pressure ([1]; Subject 6, 10 mg/kg cohort, subsequent to start of enalapril 10 mg bid on Day 9, baseline 125/90): 140/90 | blood pressure ([1]; Subject 7, 10 mg/kg once every other week, Day 9, baseline 135/90, on enalapril 5 mg bid): 170/90 | blood pressure ([1]; Subject 7, 10 mg/kg once every other week, Day 56, on enalapril 10 mg bid): 155/90 | blood pressure ([1]; Subject 8, 10 mg/kg once every other week, Day 17, home reading, baseline 140/90, captopril 25 mg as needed): 160/90 | blood pressure ([1]; Subject 8, 10 mg/kg once every other week, Day 22, in the clinic, on captopril 12.5 qd): 130/80 | blood pressure ([1]; Subject 8, 10 mg/kg once every other week, Days 23-28, at home, on captopril 12.5 qd): 150/90 | blood pressure ([1]; Subject 9, 10 mg/kg once every other week, Day 7, on nifedipine 20 mg qd): 130/80 | blood pressure ([1]; Subject 9, 10 mg/kg once every other week, Day 74, on nifedipine 20 mg qd, then discontinued): 115/75 | Total Incidence of Hypertension ([2]; 0.5 mg/kg weekly, 3 patients): 1/3 | Grade 3 Hypertension ([2]; 0.5 mg/kg weekly, 3 patients): 1 | Grade 4 Hypertension ([2]; 0.5 mg/kg weekly, 3 patients): 0 | Total Incidence of Hypertension ([2]; 1.0 mg/kg weekly, 3 patients): 1/3 | Grade 3 Hypertension ([2]; 1.0 mg/kg weekly, 3 patients): 1 | Grade 4 Hypertension ([2]; 1.0 mg/kg weekly, 3 patients): 0 | Total Incidence of Hypertension [2, 5]: 1/6 | Grade 3 Hypertension [2, 5]: 1 | Grade 4 Hypertension [2, 5]: 0 | Total Incidence of Hypertension ([2]; 2.5 mg/kg weekly, 6 patients): 2/6 | Grade 3 Hypertension ([2]; 2.5 mg/kg weekly, 6 patients): 2 | Grade 4 Hypertension ([2]; 2.5 mg/kg weekly, 6 patients): 0 | Total Incidence of Hypertension [2, 6]: 1/3 | Grade 3 Hypertension [2, 6]: 1 | Grade 4 Hypertension [2, 6]: 0 | Total Incidence of Hypertension ([2]; 5.0 mg/kg weekly, 3 patients): 0/3 | Grade 3 Hypertension ([2]; 5.0 mg/kg weekly, 3 patients): 0 | Grade 4 Hypertension ([2]; 5.0 mg/kg weekly, 3 patients): 0 | subjects who experienced Grade 3 or Grade 4 hypertension ([2]; 10.0 mg/kg dose level): 6 of 6 | Total Incidence of Hypertension ([2]; 10.0 mg/kg every 2 weeks, 6 patients): 6/6 | Grade 3 Hypertension [2, 7]: 6 | Grade 4 Hypertension [2, 7]: 1 | subjects whose hypertension was labeled grade three ([2]; of the twelve subjects with hypertension, asymptomatic, controlled with oral anti-hypertensive, treatment continued): eleven | subjects for whom hypertension was reported during the course of therapy ([2]; of thirty-three subjects, all dose cohorts): twelve | patients with hypertension reported ([2]; thirty-three subjects, all dose cohorts): 36%

From patent US10870693B2, “Therapeutic combination and methods of treatment with a DLL4 antagonist and an anti-hypertensive agent” (OncoMed Pharmaceuticals, Inc., priority 2009, dated 2020)
